Measured values reported in US20160272683A1 (Novo Nordisk, published 2016).
One block for each binder: values may come before it. Numbered stars: 1 amine (or outer) side, 2 acyl side, 3 side chain; on linkers, the order of the positions; unused ones are H or OH. * marks the point of attachment. C20 diacid = O=C(O)CCCCCCCCCCCCCCCCCCC(=O)*; C18 diacid = O=C(O)CCCCCCCCCCCCCCCCC(=O)*; C16 diacid = O=C(O)CCCCCCCCCCCCCCC(=O)*; γGlu = O=C(O)[C@H](CCC(=O)[*:2])N[*:1]; C14 diacid = O=C(O)CCCCCCCCCCCCC(=O)*; C12 diacid = O=C(O)CCCCCCCCCCC(=O)*; AEEA = NCCOCCOCC(=O)O

Biological target: T1, human calcitonin receptor (human, UniProt P30988 25-474)
T1 construct: whole, on cells; also called hCT-R; hCTR
T1 sequence (looked up): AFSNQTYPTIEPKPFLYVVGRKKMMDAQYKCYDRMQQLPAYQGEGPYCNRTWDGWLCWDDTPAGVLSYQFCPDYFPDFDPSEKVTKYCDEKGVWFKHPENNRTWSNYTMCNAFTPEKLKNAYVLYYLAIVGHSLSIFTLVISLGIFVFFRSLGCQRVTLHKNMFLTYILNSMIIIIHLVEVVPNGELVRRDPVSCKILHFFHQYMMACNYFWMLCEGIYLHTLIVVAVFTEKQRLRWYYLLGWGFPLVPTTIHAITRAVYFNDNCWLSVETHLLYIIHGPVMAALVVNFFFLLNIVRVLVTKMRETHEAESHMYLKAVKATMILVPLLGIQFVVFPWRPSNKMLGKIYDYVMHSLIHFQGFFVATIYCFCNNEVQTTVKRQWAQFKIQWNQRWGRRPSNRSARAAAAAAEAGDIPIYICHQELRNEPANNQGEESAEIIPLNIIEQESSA
Assay: whole-cell competition vs 125I-human calcitonin (Assay VIIa)
Outline: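 BHK tk'ts 13 cells stably co-expressing human calcitonin receptor and a CRE-luciferase reporter, seeded overnight at 37 °C. Bound tracer counted by scintillation after cold HBSS washes and NaOH/SDS lysis; IC₅₀ from one-site competition fit taken as receptor affinity.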

- IC50: 1.37 nM
B1: [N-terminal(C18 diacid), 17I]mimylin (peptide)
peptide: {C18 diacid}-EASELSTAALGRLSAEIHELATLPRTETGPESP-NH2
SMILES: CC[C@H](C)[C@H](NC(=O)[C@H](CCC(=O)O)NC(=O)[C@H](C)NC(=O)[C@H](CO)NC(=O)[C@H](CC(C)C)NC(=O)[C@H](CCCNC(=N)N)NC(=O)CNC(=O)[C@H](CC(C)C)NC(=O)[C@H](C)NC(=O)[C@H](C)NC(=O)[C@@H](NC(=O)[C@H](CO)NC(=O)[C@H](CC(C)C)NC(=O)[C@H](CCC(=O)O)NC(=O)[C@H](CO)NC(=O)[C@H](C)NC(=O)[C@H](CCC(=O)O)NC(=O)CCCCCCCCCCCCCCCCC(=O)O)[C@@H](C)O)C(=O)N[C@@H](Cc1c[nH]cn1)C(=O)N[C@@H](CCC(=O)O)C(=O)N[C@@H](CC(C)C)C(=O)N[C@@H](C)C(=O)N[C@H](C(=O)N[C@@H](CC(C)C)C(=O)N1CCC[C@H]1C(=O)N[C@@H](CCCNC(=N)N)C(=O)N[C@H](C(=O)N[C@@H](CCC(=O)O)C(=O)N[C@H](C(=O)NCC(=O)N1CCC[C@H]1C(=O)N[C@@H](CCC(=O)O)C(=O)N[C@@H](CO)C(=O)N1CCC[C@H]1C(N)=O)[C@@H](C)O)[C@@H](C)O)[C@@H](C)O
notes: also called Ex. #11

- IC50: 1.17 nM
B2: [N-terminal(C18 diacid), 32H]mimylin (peptide)
peptide: {C18 diacid}-EASELSTAALGRLSAELHELATLPRTETGPEHP-NH2
SMILES: CC(C)C[C@H](NC(=O)[C@H](C)NC(=O)[C@H](C)NC(=O)[C@@H](NC(=O)[C@H](CO)NC(=O)[C@H](CC(C)C)NC(=O)[C@H](CCC(=O)O)NC(=O)[C@H](CO)NC(=O)[C@H](C)NC(=O)[C@H](CCC(=O)O)NC(=O)CCCCCCCCCCCCCCCCC(=O)O)[C@@H](C)O)C(=O)NCC(=O)N[C@@H](CCCNC(=N)N)C(=O)N[C@@H](CC(C)C)C(=O)N[C@@H](CO)C(=O)N[C@@H](C)C(=O)N[C@@H](CCC(=O)O)C(=O)N[C@@H](CC(C)C)C(=O)N[C@@H](Cc1c[nH]cn1)C(=O)N[C@@H](CCC(=O)O)C(=O)N[C@@H](CC(C)C)C(=O)N[C@@H](C)C(=O)N[C@H](C(=O)N[C@@H](CC(C)C)C(=O)N1CCC[C@H]1C(=O)N[C@@H](CCCNC(=N)N)C(=O)N[C@H](C(=O)N[C@@H](CCC(=O)O)C(=O)N[C@H](C(=O)NCC(=O)N1CCC[C@H]1C(=O)N[C@@H](CCC(=O)O)C(=O)N[C@@H](Cc1c[nH]cn1)C(=O)N1CCC[C@H]1C(N)=O)[C@@H](C)O)[C@@H](C)O)[C@@H](C)O
notes: also called Ex. #18

- IC50: 0.188 nM
Binder: {C20 diacid}-EASELSTAALGRLSAELHELATLPRTETGSGSP-NH2 (also called Ex. #22) [[N-terminal(C20 diacid), 30S, 31G]mimylin]

- IC50: 2.54 nM
B3: [N-terminal(C20 diacid-gGlu), 1A, 23Y, 30S, 31G]mimylin (peptide)
peptide: {C20 diacid-γGlu}-AASELSTAALGRLSAELHELATYPRTETGSGSP-NH2
SMILES: CC(C)C[C@H](NC(=O)[C@H](C)NC(=O)[C@H](C)NC(=O)[C@@H](NC(=O)[C@H](CO)NC(=O)[C@H](CC(C)C)NC(=O)[C@H](CCC(=O)O)NC(=O)[C@H](CO)NC(=O)[C@H](C)NC(=O)[C@H](C)NC(=O)CC[C@H](NC(=O)CCCCCCCCCCCCCCCCCCC(=O)O)C(=O)O)[C@@H](C)O)C(=O)NCC(=O)N[C@@H](CCCNC(=N)N)C(=O)N[C@@H](CC(C)C)C(=O)N[C@@H](CO)C(=O)N[C@@H](C)C(=O)N[C@@H](CCC(=O)O)C(=O)N[C@@H](CC(C)C)C(=O)N[C@@H](Cc1c[nH]cn1)C(=O)N[C@@H](CCC(=O)O)C(=O)N[C@@H](CC(C)C)C(=O)N[C@@H](C)C(=O)N[C@H](C(=O)N[C@@H](Cc1ccc(O)cc1)C(=O)N1CCC[C@H]1C(=O)N[C@@H](CCCNC(=N)N)C(=O)N[C@H](C(=O)N[C@@H](CCC(=O)O)C(=O)N[C@H](C(=O)NCC(=O)N[C@@H](CO)C(=O)NCC(=O)N[C@@H](CO)C(=O)N1CCC[C@H]1C(N)=O)[C@@H](C)O)[C@@H](C)O)[C@@H](C)O
notes: also called Ex. #57

- IC50: 0.419 nM
B4: [N-terminal(C18 diacid), 20I]mimylin (peptide)
peptide: {C18 diacid}-EASELSTAALGRLSAELHEIATLPRTETGPESP-NH2
SMILES: CC[C@H](C)[C@H](NC(=O)[C@H](CCC(=O)O)NC(=O)[C@H](Cc1c[nH]cn1)NC(=O)[C@H](CC(C)C)NC(=O)[C@H](CCC(=O)O)NC(=O)[C@H](C)NC(=O)[C@H](CO)NC(=O)[C@H](CC(C)C)NC(=O)[C@H](CCCNC(=N)N)NC(=O)CNC(=O)[C@H](CC(C)C)NC(=O)[C@H](C)NC(=O)[C@H](C)NC(=O)[C@@H](NC(=O)[C@H](CO)NC(=O)[C@H](CC(C)C)NC(=O)[C@H](CCC(=O)O)NC(=O)[C@H](CO)NC(=O)[C@H](C)NC(=O)[C@H](CCC(=O)O)NC(=O)CCCCCCCCCCCCCCCCC(=O)O)[C@@H](C)O)C(=O)N[C@@H](C)C(=O)N[C@H](C(=O)N[C@@H](CC(C)C)C(=O)N1CCC[C@H]1C(=O)N[C@@H](CCCNC(=N)N)C(=O)N[C@H](C(=O)N[C@@H](CCC(=O)O)C(=O)N[C@H](C(=O)NCC(=O)N1CCC[C@H]1C(=O)N[C@@H](CCC(=O)O)C(=O)N[C@@H](CO)C(=O)N1CCC[C@H]1C(N)=O)[C@@H](C)O)[C@@H](C)O)[C@@H](C)O
notes: also called Ex. #12

- IC50: 2.27 nM
B5: [N-terminal(C20 diacid-gGlu), 23Y, 30S, 31G]mimylin (peptide)
peptide: {C20 diacid-γGlu}-EASELSTAALGRLSAELHELATYPRTETGSGSP-NH2
SMILES: CC(C)C[C@H](NC(=O)[C@H](C)NC(=O)[C@H](C)NC(=O)[C@@H](NC(=O)[C@H](CO)NC(=O)[C@H](CC(C)C)NC(=O)[C@H](CCC(=O)O)NC(=O)[C@H](CO)NC(=O)[C@H](C)NC(=O)[C@H](CCC(=O)O)NC(=O)CC[C@H](NC(=O)CCCCCCCCCCCCCCCCCCC(=O)O)C(=O)O)[C@@H](C)O)C(=O)NCC(=O)N[C@@H](CCCNC(=N)N)C(=O)N[C@@H](CC(C)C)C(=O)N[C@@H](CO)C(=O)N[C@@H](C)C(=O)N[C@@H](CCC(=O)O)C(=O)N[C@@H](CC(C)C)C(=O)N[C@@H](Cc1c[nH]cn1)C(=O)N[C@@H](CCC(=O)O)C(=O)N[C@@H](CC(C)C)C(=O)N[C@@H](C)C(=O)N[C@H](C(=O)N[C@@H](Cc1ccc(O)cc1)C(=O)N1CCC[C@H]1C(=O)N[C@@H](CCCNC(=N)N)C(=O)N[C@H](C(=O)N[C@@H](CCC(=O)O)C(=O)N[C@H](C(=O)NCC(=O)N[C@@H](CO)C(=O)NCC(=O)N[C@@H](CO)C(=O)N1CCC[C@H]1C(N)=O)[C@@H](C)O)[C@@H](C)O)[C@@H](C)O
notes: also called Ex. #34

- IC50: 0.315 nM
Binder: {C18 diacid}-EASELSTAALGRLSAELHELATLPRTETGSGSP-NH2 (also called Ex. #21) [[N-terminal(C18 diacid), 30S, 31G]mimylin]

- IC50: 0.279 nM
B6: [N-terminal(C18 diacid), 18A]mimylin (peptide)
peptide: {C18 diacid}-EASELSTAALGRLSAELAELATLPRTETGPESP-NH2
SMILES: CC(C)C[C@H](NC(=O)[C@H](C)NC(=O)[C@H](C)NC(=O)[C@@H](NC(=O)[C@H](CO)NC(=O)[C@H](CC(C)C)NC(=O)[C@H](CCC(=O)O)NC(=O)[C@H](CO)NC(=O)[C@H](C)NC(=O)[C@H](CCC(=O)O)NC(=O)CCCCCCCCCCCCCCCCC(=O)O)[C@@H](C)O)C(=O)NCC(=O)N[C@@H](CCCNC(=N)N)C(=O)N[C@@H](CC(C)C)C(=O)N[C@@H](CO)C(=O)N[C@@H](C)C(=O)N[C@@H](CCC(=O)O)C(=O)N[C@@H](CC(C)C)C(=O)N[C@@H](C)C(=O)N[C@@H](CCC(=O)O)C(=O)N[C@@H](CC(C)C)C(=O)N[C@@H](C)C(=O)N[C@H](C(=O)N[C@@H](CC(C)C)C(=O)N1CCC[C@H]1C(=O)N[C@@H](CCCNC(=N)N)C(=O)N[C@H](C(=O)N[C@@H](CCC(=O)O)C(=O)N[C@H](C(=O)NCC(=O)N1CCC[C@H]1C(=O)N[C@@H](CCC(=O)O)C(=O)N[C@@H](CO)C(=O)N1CCC[C@H]1C(N)=O)[C@@H](C)O)[C@@H](C)O)[C@@H](C)O
notes: also called Ex. #13

- IC50: 5.68 nM
Binder: {C12 diacid}-EASELSTAALGRLSAELHELATLPRTETGPESP-NH2 (also called Ex. #6) [[N-terminal(C12 diacid)]mimylin]

- IC50: 0.413 nM
Binder: {C16 diacid}-EASELSTAALGRLSAELHELATLPRTETGPESP-NH2 (also called Ex. #3) [[N-terminal(C16 diacid)]mimylin]

- IC50: 0.798 nM
B7: [N-terminal(C18 diacid)]mimylin (peptide)
peptide: {C18 diacid}-EASELSTAALGRLSAELHELATLPRTETGPESP-NH2
SMILES: CC(C)C[C@H](NC(=O)[C@H](C)NC(=O)[C@H](C)NC(=O)[C@@H](NC(=O)[C@H](CO)NC(=O)[C@H](CC(C)C)NC(=O)[C@H](CCC(=O)O)NC(=O)[C@H](CO)NC(=O)[C@H](C)NC(=O)[C@H](CCC(=O)O)NC(=O)CCCCCCCCCCCCCCCCC(=O)O)[C@@H](C)O)C(=O)NCC(=O)N[C@@H](CCCNC(=N)N)C(=O)N[C@@H](CC(C)C)C(=O)N[C@@H](CO)C(=O)N[C@@H](C)C(=O)N[C@@H](CCC(=O)O)C(=O)N[C@@H](CC(C)C)C(=O)N[C@@H](Cc1c[nH]cn1)C(=O)N[C@@H](CCC(=O)O)C(=O)N[C@@H](CC(C)C)C(=O)N[C@@H](C)C(=O)N[C@H](C(=O)N[C@@H](CC(C)C)C(=O)N1CCC[C@H]1C(=O)N[C@@H](CCCNC(=N)N)C(=O)N[C@H](C(=O)N[C@@H](CCC(=O)O)C(=O)N[C@H](C(=O)NCC(=O)N1CCC[C@H]1C(=O)N[C@@H](CCC(=O)O)C(=O)N[C@@H](CO)C(=O)N1CCC[C@H]1C(N)=O)[C@@H](C)O)[C@@H](C)O)[C@@H](C)O
notes: also called Ex. #2

- IC50: 1.05 nM
Binder: {C14 diacid}-EASELSTAALGRLSAELHELATLPRTETGPESP-NH2 (also called Ex. #4) [[N-terminal(C14 diacid)]mimylin]

- IC50: 6.51 nM
Binder: {C14 diacid-γGlu-γGlu-AEEA-AEEA-AEEA-AEEA}-EASELSTAALGRLSAELHELATLPRTETGPESP-NH2 (also called Ex. #5) [[N-terminal(C14 diacid-2xgGlu-4xOEG)]mimylin]
